Measured values from paper PMC2571106 (BMC Microbiology, 2008).

Key:
[1] = target: the molecule itself; experiment: transmission electron microscopy of self-assembly products (negative stain); 1 mg purified, lyophilised recombinant protein in 1 ml 5 M GHCl, 50 mM Tris-HCl pH 7.2, dialysed against 10 mM CaCl2 in distilled water for 18 h; negative stain with 2,5% uranyl acetate
[2] = target: the molecule itself; experiment: transmission electron microscopy of self-assembly products (negative stain); SlpA extracted from L. brevis cells with 2 M GHCl, 1 mg/ml, dialysed against water with 5 mM CaCl2 and then water at +4°C; pelleted self-assembly products in 25 mM Tris-HCl pH 8.0
[3] = target: the molecule itself; experiment: precipitation after dialysis from GHCl (self-assembly test); affinity purified protein dissolved in 5 M GHCl at 1 mg/ml, dialysed against PBS for two hours at 4°C, centrifuged 16,000 x g 30 min, precipitate checked by SDS-PAGE

B1: full length recombinant SlpA (SlpA 1-435), S-layer protein of Lactobacillus brevis ATCC 8287 (natural protein, UniProt Q05044 31-465, looked up)
chain: KSYATAGAYSTLKTDAATRNVEATGTNALYTKPGTVKGAKVVASKATMAKLASSKKSADYFRAYGVKTTNRGSVYYRVVTMDGKYRGYVYGGKSDTAFAGGIKSAETTTKADMPARTTGFYLTDTSKNTLWTAPKYTQYKASKVSLYGVAKDTKFTVDQAATKTREGSLYYHVTATNGSGISGWIYAGKGFSTTATGTQVLGGLSTDKSVTATNDNSVKIVYRTTDGTQVGSNTWVTSTDGTKAGSKVSDKAADQTALEAYINANKPSGYTVTNPNAADATYGNTVYATVSQAATSKVALKVSGTPVTTALTTADANDKVAANDTTANGSSVAGSTVYAAGTKLAQLTTDLTGEKGQVVTLTAIDTDLEDATFTGTTTYYSDLGKAYHYTYTYNKDSAASSNASTQFGSNVTGTLTATLVMGKSTATANGTTWFN
notes: numbers count on: the mature protein; Two full length constructs were made: pKTH5198 (C-terminal linker-His6) and pKTH5199 (N-terminal His6-linker); no cleavage is mentioned; also called rSlpA; nontruncated rSlpA; source: E. coli BL21(DE3), purified (His Trap HP in 4 M GHCl or 6 M urea)
binding result [1]: binds

B2: wild type SlpA isolated from L. brevis ATCC 8287 cells (natural protein, Lactobacillus brevis ATCC 8287, UniProt Q05044 31-465, looked up)
chain: B1 chain
notes: numbers count on: the mature protein; source: extracted from L. brevis ATCC 8287 cells with 2 M GHCl, dialysed
binding result [2]: binds

B3: rSlpA_(179-435) (domain or fragment, Lactobacillus brevis ATCC 8287, UniProt Q05044 209-465, looked up)
chain: SGISGWIYAGKGFSTTATGTQVLGGLSTDKSVTATNDNSVKIVYRTTDGTQVGSNTWVTSTDGTKAGSKVSDKAADQTALEAYINANKPSGYTVTNPNAADATYGNTVYATVSQAATSKVALKVSGTPVTTALTTADANDKVAANDTTANGSSVAGSTVYAAGTKLAQLTTDLTGEKGQVVTLTAIDTDLEDATFTGTTTYYSDLGKAYHYTYTYNKDSAASSNASTQFGSNVTGTLTATLVMGKSTATANGTTWFN
notes: numbers count on: the mature protein; also called rSlpA C-terminal domain; source: E. coli BL21(DE3), purified (His Trap HP in 4 M GHCl or 6 M urea)
binding result [3]: binds

B4: rSlpA_(146-435) (domain or fragment, Lactobacillus brevis ATCC 8287, UniProt Q05044 176-465, looked up)
chain: LYGVAKDTKFTVDQAATKTREGSLYYHVTATNGSGISGWIYAGKGFSTTATGTQVLGGLSTDKSVTATNDNSVKIVYRTTDGTQVGSNTWVTSTDGTKAGSKVSDKAADQTALEAYINANKPSGYTVTNPNAADATYGNTVYATVSQAATSKVALKVSGTPVTTALTTADANDKVAANDTTANGSSVAGSTVYAAGTKLAQLTTDLTGEKGQVVTLTAIDTDLEDATFTGTTTYYSDLGKAYHYTYTYNKDSAASSNASTQFGSNVTGTLTATLVMGKSTATANGTTWFN
notes: numbers count on: the mature protein; Cloned through an NcoI site; the primer may add residues at the N-terminus (surmise from primer 1602); source: E. coli BL21(DE3), purified (His Trap HP in 4 M GHCl or 6 M urea)
binding result [3]: binds
